# Laboratory results as given in US20230203202A1 (DRAGONFLY THERAPEUTICS, published 2023).
# T1: human 5T4 (SPR and epitope mapping, construct not stated) (human, UniProt Q13641 32-355, limits assumed)
# T1 construct: also called h5T4
# T1 sequence (looked up): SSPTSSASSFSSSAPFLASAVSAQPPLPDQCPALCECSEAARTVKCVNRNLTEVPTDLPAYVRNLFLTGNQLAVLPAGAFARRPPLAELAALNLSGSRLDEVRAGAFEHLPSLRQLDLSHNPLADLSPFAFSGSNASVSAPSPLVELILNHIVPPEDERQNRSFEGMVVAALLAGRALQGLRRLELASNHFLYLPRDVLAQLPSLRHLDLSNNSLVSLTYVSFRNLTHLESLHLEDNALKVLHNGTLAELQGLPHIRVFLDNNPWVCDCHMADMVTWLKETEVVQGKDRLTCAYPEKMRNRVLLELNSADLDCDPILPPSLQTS
# T2: cynomolgus 5T4 (cynomolgus monkey, UniProt Q4R8Y9 32-355, limits assumed)
# T2 construct: also called Cynomolgus monkey 5T4
# T2 sequence (looked up): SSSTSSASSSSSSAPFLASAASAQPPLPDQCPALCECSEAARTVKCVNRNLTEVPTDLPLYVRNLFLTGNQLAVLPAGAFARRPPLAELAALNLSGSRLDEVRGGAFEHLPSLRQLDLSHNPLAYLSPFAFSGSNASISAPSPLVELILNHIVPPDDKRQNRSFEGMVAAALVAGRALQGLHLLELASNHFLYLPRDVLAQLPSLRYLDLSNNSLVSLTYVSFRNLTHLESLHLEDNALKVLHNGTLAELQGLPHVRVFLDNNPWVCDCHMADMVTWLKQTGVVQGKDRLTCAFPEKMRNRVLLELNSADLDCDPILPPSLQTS
# T3: human 5T4 on the cell surface (human, UniProt Q13641 32-420)
# T3 sequence (looked up): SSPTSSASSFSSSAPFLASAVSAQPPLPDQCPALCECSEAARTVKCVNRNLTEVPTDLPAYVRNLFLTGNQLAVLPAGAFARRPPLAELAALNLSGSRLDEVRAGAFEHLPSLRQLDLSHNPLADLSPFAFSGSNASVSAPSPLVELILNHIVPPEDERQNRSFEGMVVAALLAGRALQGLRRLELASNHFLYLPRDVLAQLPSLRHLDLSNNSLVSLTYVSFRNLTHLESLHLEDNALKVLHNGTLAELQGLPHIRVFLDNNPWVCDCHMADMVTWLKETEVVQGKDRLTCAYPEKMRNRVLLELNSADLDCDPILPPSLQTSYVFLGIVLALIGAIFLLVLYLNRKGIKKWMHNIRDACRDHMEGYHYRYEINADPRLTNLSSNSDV
# B1: AB1310/AB1783-TriNKET® (bispecific antibody, human IgG1, kappa)
# chain: DIQLTQSPSSLSASVGDRVTITCRASQSVTTSNYNYMHWFQQKPGKAPKLLIKFASNLESGVPSRFSGSGSGTDFTLTISSLQPEDFATYYCQHSWEIPWTFGCGTKVEIKGGGGSGGGGSGGGGSGGGGSEVQLVESGGGLVKPGGSLRLSCAASRFTFSDFGMHWVRQAPGKCLEWVSYISSGSSTIYYADSVKGRFTISRDNAKNSLYLQMNSLRAEDTAVYYCASSQSYYRGTLDYWGQGTTVTVSSASDKTHTCPPCPAPELLGGPSVFLFPPKPKDTLMISRTPEVTCVVVDVSHEDPEVKFNWYVDGVEVHNAKTKPREEQYNSTYRVVSVLTVLHQDWLNGKEYKCKVSNKALPAPIEKTISKAKGQPREPRVYTLPPCRDELTKNQVSLTCLVKGFYPSDIAVEWESNGQPENNYKTTPPVLVSDGSFTLYSKLTVDKSRWQQGNVFSCSVMHEALHNHYTQKSLSLSPG
# heavy: EVQLVESGGGLVKPGGSLRLSCAASGFTFSSYSMNWVRQAPGKGLEWVSSISSSSSYIYYADSVKGRFTISRDNAKNSLYLQMNSLRAEDTAVYYCARGAPIGAAAGWFDPWGQGTLVTVSSASTKGPSVFPLAPSSKSTSGGTAALGCLVKDYFPEPVTVSWNSGALTSGVHTFPAVLQSSGLYSLSSVVTVPSSSLGTQTYICNVNHKPSNTKVDKKVEPKSCDKTHTCPPCPAPELLGGPSVFLFPPKPKDTLMISRTPEVTCVVVDVSHEDPEVKFNWYVDGVEVHNAKTKPREEQYNSTYRVVSVLTVLHQDWLNGKEYKCKVSNKALPAPIEKTISKAKGQPREPQVCTLPPSRDELTENQVSLTCLVKGFYPSDIAVEWESNGQPENNYKTTPPVLDSDGSFFLYSWLTVDKSRWQQGNVFSCSVMHEALHNHYTQKSLSLSPG
# light: DIQMTQSPSSVSASVGDRVTITCRASQGISSWLAWYQQKPGKAPKLLIYAASSLQSGVPSRFSGSGSGTDFTLTISSLQPEDFATYYCQQGVSFPRTFGGGTKVEIKRTVAAPSVFIFPPSDEQLKSGTASVVCLLNNFYPREAKVQWKVDNALQSGNSQESVTEQDSKDSTYSLSSTLTLSKADYEKHKVYACEVTHQGLSSPVTKSFNRGEC
# notes: also called AB1310-TriNKET®; AB1783 10F10 F3′ LH H(T62S) CHO opt
# Tests used:
# [1] = target: T1, human 5T4 (SPR and epitope mapping, …); experiment: SPR
# Procedure: (§1) Briefly, SPR was performed using a Biacore 8K instrument at physiological temperature of 37° C. Briefly, human Fc specific antibodies were covalently immobilized at a density of about 8000-10000 resonance units (RU) on carboxy methyl dextran matrix of a CM5 biosensor chip to create an anti-hFc IgG chip. Samples were injected on the anti-hFc IgG chip at a flow rate of 10 μL/min for 60 seconds. Protein was serially diluted (300 nM-0.14 nM) in three-fold dilutions with running buffer and injected at a flow rate of 30 μl/min over the captured test articles. Association was monitored for 240-300 seconds, and dissociation was monitored for 300-900 seconds. Surfaces were regenerated between cycles with three pulses of 10 mM glycine-HCl (pH 1.7) injected for 20 seconds at 100 μL/min.
# cynomolgus 5T4 = target: T2, cynomolgus 5T4; experiment: SPR
# Procedure: as §1
# [2] = target: T3, human 5T4 on the cell surface; experiment: cell-based or functional assay
# [3] = target: T3, human 5T4 on the cell surface; experiment: cell-based or functional assay; remark: listed apart in the source
# [4] = target: T3, human 5T4 on the cell surface; experiment: cell-based or functional assay; remark: listed apart in the source
# [5] = target: T3, human 5T4 on the cell surface; experiment: flow cytometry on H292 cells (12,000 5T4 per cell)
# [6] = target: T3, human 5T4 on the cell surface; experiment: flow cytometry on BT474 cells (20,000 5T4 per cell)
# [7] = target: T3, human 5T4 on the cell surface; experiment: flow cytometry on H1703 cells (15,000 5T4 per cell)
# [8] = target: T3, human 5T4 on the cell surface; experiment: flow cytometry on H1975 cells (22,000 5T4 per cell)
# [9] = target: T3, human 5T4 on the cell surface; experiment: flow cytometry on HCC4006 cells (53,000 5T4 per cell)
# [10] = target: T3, human 5T4 on the cell surface; experiment: flow cytometry on KYSE-30 cells (61,000 5T4 per cell)
# [11] = target: T3, human 5T4 on the cell surface; experiment: flow cytometry on Detroit 562 cells (21,000 5T4 per cell)
# [12] = target: T1, human 5T4 (SPR and epitope mapping, …); experiment: SPR, h5T4 binding; sample stressed in HST pH 6, 7 days 50 °C
# [13] = target: T1, human 5T4 (SPR and epitope mapping, …); experiment: SPR, Biacore 8K, 37 °C, TriNKET captured on anti-hFc chip, pH 6.0
# Procedure: as §1
# [14] = target: T3, human 5T4 on the cell surface; experiment: cell binding assay on 5T4-expressing tumor cells (cell line not given)
# [15] = target: T1, human 5T4 (SPR and epitope mapping, …); experiment: SPR, h5T4 binding; sample stressed in Tris pH 9, 7 days 40 °C; heterogeneous binding, approximate value
binder,measurement,setting,value
B1,Kd,[1],6.2 nM
same,Kd,cynomolgus 5T4,8.3 nM
same,"NK cell-mediated lysis of primary CAFs, EC50 (first column pair)",[2],0.081 nM
same,"NK cell-mediated lysis of primary CAFs, EC50 (second column pair)",[2],0.19 nM
same,"cynomolgus monkey NK cell activation in co-culture with H292 cells, EC50",[3],0.06 nM
same,"cynomolgus monkey NK cell activation in co-culture with KYSE-30 cells, EC50",[3],0.06 nM
same,"human NK cell activation in co-culture with H292 cells, EC50",[3],0.35 nM
same,"human NK cell activation in co-culture with KYSE-30 cells, EC50",[3],0.13 nM
same,"long-term NK cell-mediated inhibition of HCT 116 cells (Incucyte, 72 h), EC50",[4],0.16 nM
same,"long-term NK cell-mediated inhibition of HT-29 cells (Incucyte, 72 h), EC50",[4],1.3 nM
same,"long-term NK cell-mediated inhibition of KYSE-30 cells (Incucyte, 72 h), EC50",[4],0.087 nM
same,"long-term NK cell-mediated inhibition of NCI-H292 cells (Incucyte, 72 h), EC50",[4],0.37 nM
same,EC50,[5],1.5 nM
same,EC50,[6],3.7 nM
same,EC50,[7],2.6 nM
same,EC50,[8],1.9 nM
same,EC50,[9],7.6 nM
same,EC50,[10],2.5 nM
same,EC50,[11],2.7 nM
same,Kd,[12],7.6 nM
same,koff,[12],0.00088 s⁻¹
same,kon,[12],110000 M⁻¹ s⁻¹
same,Kd,[13],9.4 nM
same,koff,[13],0.0012 s⁻¹
same,kon,[13],120000 M⁻¹ s⁻¹
same,EC50,[14],5.33 nM
same,Max Fold Over Background (FOB),[14],85 fold over background
same,Kd,[15],~15.1 nM
